Earlier results on 3 substances are cited in article PMC6414276.

Like-named read-outs stand apart in the source and are kept apart here.

Usually Kd stands for the equilibrium constant for the complex coming apart.

The target in series [1] is CBP TAZ1 (Mus musculus) (UniProt P45481).
Series [2] has the same target. This is another data set of the same source.
The target is the same in series [3]. The source holds these as a separate data set.

Chain of UniProt P45481 (P45481 340-439): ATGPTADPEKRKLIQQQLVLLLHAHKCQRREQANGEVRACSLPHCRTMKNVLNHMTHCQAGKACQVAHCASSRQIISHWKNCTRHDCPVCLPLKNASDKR

Turning to HIF-1α 790-826 (from UniProt Q16665), in the series with CBP TAZ1 (Mus musculus) [1], the dissociation constant Kd is 0.047 µM.
With “HIF-1α LPQL-αB motif (from UniProt Q16665)”, in the series with CBP TAZ1 (Mus musculus) [2], the dissociation constant Kd is greater than 1000 µM.
For the substance HIF-1α αC motif (from UniProt Q16665), in the series with CBP TAZ1 (Mus musculus) [3], the dissociation constant (Kd) was 200 µM.
